Data published in article PMC5732302.

Biological target: taxol-stabilized microtubules (control, undigested, with E-hooks) (porcine) (UniProt P02550)
Sequence (P02550 whole entry, chain 1 of 2): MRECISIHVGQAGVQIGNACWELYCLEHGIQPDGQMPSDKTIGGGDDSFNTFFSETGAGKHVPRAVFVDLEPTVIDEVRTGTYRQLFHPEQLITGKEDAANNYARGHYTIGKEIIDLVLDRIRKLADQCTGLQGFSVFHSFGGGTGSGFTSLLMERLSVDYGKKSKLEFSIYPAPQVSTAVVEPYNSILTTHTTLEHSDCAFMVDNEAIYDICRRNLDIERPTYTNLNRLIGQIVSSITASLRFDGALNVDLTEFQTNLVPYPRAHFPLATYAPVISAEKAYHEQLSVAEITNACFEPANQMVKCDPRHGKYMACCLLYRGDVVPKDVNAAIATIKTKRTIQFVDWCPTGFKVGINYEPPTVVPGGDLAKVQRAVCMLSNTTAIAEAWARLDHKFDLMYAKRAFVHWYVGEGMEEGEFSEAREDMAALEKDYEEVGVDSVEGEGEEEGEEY
Sequence (chain, as listed by the source, chain 2 of 2): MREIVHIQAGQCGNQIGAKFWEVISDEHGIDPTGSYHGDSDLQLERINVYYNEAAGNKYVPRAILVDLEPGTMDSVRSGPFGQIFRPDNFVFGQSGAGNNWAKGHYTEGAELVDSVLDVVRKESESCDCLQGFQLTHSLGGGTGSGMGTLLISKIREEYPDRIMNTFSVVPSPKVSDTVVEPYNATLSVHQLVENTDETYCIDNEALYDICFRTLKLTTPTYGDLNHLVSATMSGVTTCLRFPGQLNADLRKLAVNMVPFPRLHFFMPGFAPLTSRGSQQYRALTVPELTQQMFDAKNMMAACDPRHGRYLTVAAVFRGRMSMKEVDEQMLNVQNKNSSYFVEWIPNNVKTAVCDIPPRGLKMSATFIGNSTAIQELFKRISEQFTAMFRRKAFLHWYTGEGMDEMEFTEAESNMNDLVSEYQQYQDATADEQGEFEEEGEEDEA

Substance: GST–dynein331, artificially dimerized (via glutathione S-transferase) dynein motor domain fragment, P36022 1-4092
- K m(MT) of the microtubule-stimulated ATPase activity of GST–dynein331 (0–2 µM microtubules), with 200 nM She1: 0.04 µM
- K m(MT) of the microtubule-stimulated ATPase activity of GST–dynein331 (0–2 µM microtubules), without She1: 0.1 µM
